Non-standard residues stand in square brackets, D forms with d. alkynyl palmitic acid = FA, attached to pAzF by click chemistry; Phe(4-N3) = [N-]=[N+]=Nc1ccc(C[C@H](N)C(=O)O)cc1
Key:
human serum albumin = molecular target: T1, human serum albumin (human, UniProt P02768 25-609); assay: SPR; Biacore T200; HSA or MSA immobilised by amine coupling on CM5 chip (∼1,300 to 12,800 RU); ELP-GFP derivatives injected, twofold dilution series ∼0.28 to 60 µM; PBS running buffer; 60-s association, 600-s dissociation; steady-state affinity binding model; mean of four to eight independent measurements; details: both partners purified
T1 construct: serum albumin, human; also called HSA; source: bought: Sigma, catalog #A3782

mouse serum albumin = molecular target: T2, mouse serum albumin (mouse, UniProt P07724 25-608); assay: as above; details: both partners purified
T2 construct: serum albumin, mouse, from mouse serum; also called MSA; albumin from mouse serum; source: bought: Sigma, catalog #A3139 (albumin from mouse serum)
T2 sequence (P07724 25-608): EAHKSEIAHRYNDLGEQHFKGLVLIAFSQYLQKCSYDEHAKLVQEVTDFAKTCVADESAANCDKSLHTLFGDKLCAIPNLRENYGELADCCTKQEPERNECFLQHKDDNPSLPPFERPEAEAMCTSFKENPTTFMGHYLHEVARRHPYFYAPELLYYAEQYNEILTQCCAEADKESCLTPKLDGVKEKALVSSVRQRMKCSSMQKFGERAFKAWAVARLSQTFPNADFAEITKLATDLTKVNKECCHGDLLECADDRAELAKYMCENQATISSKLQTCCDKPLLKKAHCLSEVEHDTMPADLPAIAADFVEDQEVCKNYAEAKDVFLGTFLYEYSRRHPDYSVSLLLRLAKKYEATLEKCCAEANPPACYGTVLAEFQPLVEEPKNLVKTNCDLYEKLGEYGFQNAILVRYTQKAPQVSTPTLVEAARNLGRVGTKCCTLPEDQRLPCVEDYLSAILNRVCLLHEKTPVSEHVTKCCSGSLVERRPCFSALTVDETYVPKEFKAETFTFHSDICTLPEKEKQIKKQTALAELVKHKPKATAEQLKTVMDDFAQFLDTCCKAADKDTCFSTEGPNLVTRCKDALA

- Kd (human serum albumin): 1640 nM
- Kd (mouse serum albumin): 2220 nM
B1: ELP(10FA)-GFP, ISAz treated (other)
chain: VPGAGVPG[Phe(4-N3)](alkynyl palmitic acid)GVPGGGVPGAGVPG[Phe(4-N3)](alkynyl palmitic acid)GVPGGGVPGAGVPG[Phe(4-N3)](alkynyl palmitic acid)GVPGGGVPGAGVPG[Phe(4-N3)](alkynyl palmitic acid)GVPGGGVPGAGVPG[Phe(4-N3)](alkynyl palmitic acid)GVPGGGVPGAGVPG[Phe(4-N3)](alkynyl palmitic acid)GVPGGGVPGAGVPG[Phe(4-N3)](alkynyl palmitic acid)GVPGGGVPGAGVPG[Phe(4-N3)](alkynyl palmitic acid)GVPGGGVPGAGVPG[Phe(4-N3)](alkynyl palmitic acid)GVPGGGVPGAGVPG[Phe(4-N3)](alkynyl palmitic acid)GVPGGG
modifications: not fully specified (C-terminus); also: pAzF coupled to alkynyl palmitic acid by click (triazole)
